Assay results taken from paper PMC3430366.

Experiments:
[1] = molecular target: TDPX1 Cys35Ala (Leishmania major (Friedlin strain)); test: SDS-PAGE after reduction or oxidation
[2] = molecular target: TDPX1 Cys83Ala (Leishmania major (Friedlin strain)); test: SDS-PAGE after reduction or oxidation

Substance | stoichiometry N [1] | stoichiometry N [2]
TDPX1 Cys35Ala (enzyme) | 2 | –
TDPX1 Cys83Ala (enzyme) | – | 2
